This is an account of results in patent publication EP0959894B1.

Read-outs that look alike come from different tables or passages of the source.

Assay [1] has as its target tissue plasminogen activator (t-PA) (UniProt P00750). Briefly: ratio of the rate constants toward t-PA and toward u-PA.
The target is the same in assay [2]. The assay can be described thus: ratio of selectivities from second order rate constants for inhibition.
Assay [3] shares this target. Briefly: inhibition kinetics from residual enzyme activity (chromogenic assay), pseudo-first or second order conditions.
Assay [4] concerns the target urokinase-type plasminogen activator (u-PA) (UniProt P00749). Described as above.
The target is the same in assay [5]. Briefly: ratio of second order rate constants for inhibition.
The target is the same in assay [6]. Briefly: ratio of the rate constants toward u-PA and toward t-PA.
For assay [7] the target is unchanged. Briefly: ratio of selectivities from second order rate constants for inhibition.
Assay [8] concerns the target tissue plasminogen activator (t-PA) (UniProt P00750). The assay can be described thus: inhibition kinetics from residual enzyme activity (chromogenic assay), pseudo-first or second order conditions. The source holds these as a separate data set.
For assay [9], the target named is urokinase-type plasminogen activator (u-PA) (UniProt P00749). Described as above. This is another data set of the same source.
For assay [10] the target is unchanged. Briefly: ratio of the second order rate constants for inhibition.

Chain of tissue plasminogen activator (t-PA) (P00750 36-562 limits assumed): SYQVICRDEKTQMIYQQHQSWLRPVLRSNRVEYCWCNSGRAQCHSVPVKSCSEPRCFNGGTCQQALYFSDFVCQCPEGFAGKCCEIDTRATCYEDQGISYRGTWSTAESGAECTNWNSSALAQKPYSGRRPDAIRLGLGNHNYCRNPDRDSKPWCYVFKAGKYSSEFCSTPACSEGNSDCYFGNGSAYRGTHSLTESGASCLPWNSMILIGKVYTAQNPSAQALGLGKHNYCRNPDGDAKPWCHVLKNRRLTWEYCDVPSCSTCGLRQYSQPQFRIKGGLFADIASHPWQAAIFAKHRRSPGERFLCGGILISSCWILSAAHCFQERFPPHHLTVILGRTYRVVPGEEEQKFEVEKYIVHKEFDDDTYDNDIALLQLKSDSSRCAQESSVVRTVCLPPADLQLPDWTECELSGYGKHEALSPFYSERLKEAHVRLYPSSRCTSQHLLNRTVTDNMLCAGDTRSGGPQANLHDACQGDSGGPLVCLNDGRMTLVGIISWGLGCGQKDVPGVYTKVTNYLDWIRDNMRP

Consider “PAI-1/P4Q,P3R (from UniProt P05121 24-402)”, for which the t-PA/u-PA Selectivity in assay [1] was determined as 48. Also, the fold gain of t-PA selectivity against the P3 arginine variant of PAI-1 in assay [2] is 3.5 fold. For the same substance, the fold gain of t-PA/u-PA selectivity against wild-type PAI-1 in assay [2] is 600 fold. The second order rate constant for inhibition in assay [3] is 1.4e+06 M⁻¹ s⁻¹; in assay [4], 29000 M⁻¹ s⁻¹.
PAI-1/P3R (from UniProt P05121 24-402): the fold reduction of activity against wild type PAI-1 in assay [5] was found to be 190 fold. The t-PA/u-PA Selectivity in [1] is 14. In assay [2], the fold reversal in specificity toward t-PA against wild type PAI-1 turned out to be 170 fold. Besides, the second order rate constant for inhibition stood at 1.4e+06 M⁻¹ s⁻¹ in assay [3] and 100000 M⁻¹ s⁻¹ in assay [4].
For the substance PAI-1/UK1 (from UniProt P05121 24-402), the t-PA/u-PA Selectivity (as headed; the value is the u-PA/t-PA ratio) in [6] came to 69. Further, in assay [7], the fold gain of u-PA/t-PA selectivity against wild type PAI-1 came out at 7 fold. For the same substance, the second order rate constant for inhibition in assay [8] was determined as 90000 M⁻¹ s⁻¹; in assay [9], 6.2e+06 M⁻¹ s⁻¹.
As to PAI-1/P4Q (from UniProt P05121 24-402), the t-PA/u-PA Selectivity in assay [1] worked out at 0.08. The second order rate constant for inhibition in assay [3] amounted to 1.6e+06 M⁻¹ s⁻¹; in [4], 1.9e+07 M⁻¹ s⁻¹.
“Wild type PAI-1 (recombinant human plasminogen activator inhibitor type 1) (from UniProt P05121 24-402)”: in [1], the t-PA/u-PA Selectivity turned out to be 0.08. Moreover, the t-PA/u-PA Selectivity (as headed; the value is the u-PA/t-PA ratio) in [6] came out at 11. In addition, the fold specificity toward u-PA over t-PA in assay [10] was determined as 11.9 fold. Also, the second order rate constant for inhibition in assay [3] turned out to be 1.6e+06 M⁻¹ s⁻¹; in assay [8], 1.8e+06 M⁻¹ s⁻¹; in assay [9] it was 1.9e+07 M⁻¹ s⁻¹.
